Consider eight molecules from patent EP4703388A1 (Jiangsu Hengrui Pharmaceuticals Co., Ltd., dated 2024).

Numbering of substitutions follows the chain as printed.

The target in experiment [1] is T1, human TF ECD-His (hTF-his) (human, UniProt P13726 33-251).
T1 construct: also called bio-hTF-his; human TF-His protein
In words: SPR Biacore T200, antibody on Protein A chip, TF-His as analyte, 1:1 model.

Experiment [2] addresses T2, cyno TF ECD-His (cTF-his) (monkey (cyno)).
T2 construct: also called bio-cTF-his; monkey TF-His protein
T2 chain: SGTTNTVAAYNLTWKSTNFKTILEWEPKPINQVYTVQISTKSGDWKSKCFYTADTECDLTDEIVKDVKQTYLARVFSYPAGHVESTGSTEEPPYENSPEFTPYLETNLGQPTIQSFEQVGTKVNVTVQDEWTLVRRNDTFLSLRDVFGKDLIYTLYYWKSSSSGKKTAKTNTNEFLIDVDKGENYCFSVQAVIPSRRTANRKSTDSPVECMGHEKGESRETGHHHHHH
The description is as above.

Experiment [3] has as its target T3, human tissue factor (TF) on MDA-MB-231, NCI-H358 and HCT116 cells (human, UniProt P13726 33-295).
T3 construct: whole, on cells; also called TF antigen; CD142
The experiment in a line: flow cytometry on H358 cells. (A flow cytometer gives signals particle by particle.)

The target in experiment [4] is T3, human tissue factor (TF) on MDA-MB-231, …. In words: flow cytometry on MDA-MB-231 cells.
The target in experiment [5] is T4, HuRatTF, human-rat hybrid TF antigen (human-rat hybrid).
T4 construct: also called HuRatTF protein; human-rat hybrid TF protein
T4 chain: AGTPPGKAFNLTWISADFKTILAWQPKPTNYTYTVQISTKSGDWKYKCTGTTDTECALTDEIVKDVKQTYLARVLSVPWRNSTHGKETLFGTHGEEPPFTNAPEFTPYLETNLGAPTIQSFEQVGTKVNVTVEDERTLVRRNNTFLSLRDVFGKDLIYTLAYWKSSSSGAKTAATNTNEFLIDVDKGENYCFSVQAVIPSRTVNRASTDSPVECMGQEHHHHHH
In words: ELISA, HuRatTF coated, antibody titrated. (In general: An ELISA detects its analyte on a solid surface through an enzyme-linked reagent.)

Experiment [6] addresses T3, human tissue factor (TF) on MDA-MB-231, …. The experiment in a line: cell-based or functional assay.
The next experiment addresses T5, rat TF ECD-His (rat, UniProt P42533 29-252).
T5 construct: also called rat TF-His protein; rat TF antigen protein
T5 sequence: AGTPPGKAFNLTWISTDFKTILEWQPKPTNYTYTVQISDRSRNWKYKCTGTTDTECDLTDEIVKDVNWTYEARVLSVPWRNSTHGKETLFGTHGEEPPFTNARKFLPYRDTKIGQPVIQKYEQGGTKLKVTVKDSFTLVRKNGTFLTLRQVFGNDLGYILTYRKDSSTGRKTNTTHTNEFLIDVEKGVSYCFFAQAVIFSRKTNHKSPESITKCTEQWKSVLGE
In words: ELISA, TF-His coated at 4 µg/mL, antibody titrated.

Another experiment deals with T6, mouse TF ECD-His (mouse, UniProt P20352 29-251).
T6 construct: also called Mouse TF-His protein; mouse TF antigen protein
T6 sequence: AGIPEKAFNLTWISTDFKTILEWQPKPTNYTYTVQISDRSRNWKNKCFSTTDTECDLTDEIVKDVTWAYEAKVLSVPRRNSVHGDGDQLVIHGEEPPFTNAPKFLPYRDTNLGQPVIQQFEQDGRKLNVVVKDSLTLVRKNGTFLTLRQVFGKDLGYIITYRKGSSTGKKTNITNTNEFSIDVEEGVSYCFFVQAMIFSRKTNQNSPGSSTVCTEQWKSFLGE
The experiment in a line: ELISA, TF-His coated at 4 µg/mL, antibody titrated.

For experiment [7], the target named is T3, human tissue factor (TF) on MDA-MB-231, …. In words: cell-based or functional assay. This is another data set of the same source.
The target in experiment [8] is T1, human TF ECD-His (hTF-his). In words: ELISA, antibody captured by anti-human IgG, biotinylated TF-his titrated.
The target in experiment [9] is T2, cyno TF ECD-His (cTF-his). The description is as above.
Experiment [10] concerns the target T3, human tissue factor (TF) on MDA-MB-231, …. The experiment in a line: flow cytometry on HCT116 cells.

B1: hu10H10-29 (antibody, V domains shown)
VH: EVQLVQSGSELKKPGASVKVSCKASGYTFITYWIEWVKQRPGQGLEWMGDILPYSGSTNYNENFKGRATFSADTSVSTAYLQISSLKAEDTAVYYCARSGYYGNSGFAYWGQGTLVTVSS
VL: DIQMTQSPSSLSASVGDRVTITCKSSQSLLSSGNQKNYLTWYQQKPGKAPKLLIYWASTRESGVPSRFSGSGSGTDFTLTISSLQPEDFATYYCQNDYTYPLTFGQGTKLEIK
notes: H11+L1; Full-length IgG
In [1], B1 returned an equilibrium dissociation constant (Kd) of 0.545 nM, a koff of 7.45e-05 s⁻¹ and an association rate constant (kon) of 137000 M⁻¹ s⁻¹. In addition, in [2], the affinity, expressed as Kd, was 0.642 nM; the off-rate (koff) came out at 9.83e-05 s⁻¹; the kon was found to be 153000 M⁻¹ s⁻¹. The half-maximal effective concentration (EC50) in experiment [3] turned out to be 0.45 nM. Besides, in experiment [4], the 50% effective concentration (EC50) stood at 1.09 nM.

B2: hu10H10-77 (antibody, V domains shown)
VH: B1 VH
VL: B1 VL with K24Q
notes: H11+L9; Full-length IgG
For B2, the dissociation constant (Kd) in experiment [1] came out at 0.749 nM; in [2], 0.677 nM. Besides, the koff in experiment [1] is 0.00011 s⁻¹; in experiment [2], 0.000114 s⁻¹. For the same molecule, the kon in experiment [1] was determined as 146000 M⁻¹ s⁻¹; in [2], 169000 M⁻¹ s⁻¹. Also, the EC50 in [5] was determined as 2 nM; in experiment [3] it was 0.68 nM; in [4] it was 1.64 nM; in experiment [8] it was 0.0035 µg/mL; in [9] it was 0.0027 µg/mL; in experiment [10] it was 0.47 nM. Besides, the “Maximum (OD450 nm)” value in experiment [5] came out at 1.39 OD450 nm. Also, in [6], the “EC50 (nM), IL8 assay (IL-8 of MDA-MB-231 cells after antibody and FVIIa)” value (shortened to “EC50 (nM), IL8 assay”) came out at 0.412 nM. The binding result with rat TF ECD-His and in the experiment with mouse TF ECD-His was “no binding” in each case. The “Inhibition rate (%), Factor-VII-Human Chromogenic-Activity blood coagulation pathway assay (FVIIa, MDA-MB-231 cells, FX; antibody 20 µg/mL)” value (from here on “Inhibition rate (%)”) in [7] was -1.8%. Besides, the Emax is 1 in experiment [8] and 1.13 in [9].

B3: hu10H10-53 (antibody, V domains shown)
VH: B1 VH
VL: B1 VL with G33S, S62E
notes: H11+L6; Full-length IgG
Take B3: the dissociation constant (Kd) stood at 0.47 nM in [1] and 0.375 nM in [2]. Besides, the off-rate (koff) in experiment [1] worked out at 7.34e-05 s⁻¹; in experiment [2], 6.77e-05 s⁻¹. The figures for the on-rate constant (kon) in [1] and in experiment [2] were 156000 M⁻¹ s⁻¹ and 181000 M⁻¹ s⁻¹, respectively. The half-maximal effective concentration (EC50) is 0.41 nM in experiment [3] and 1.09 nM in experiment [4].

B4: chimeric antibody CH67 (antibody, human IgG1, kappa, V domains shown)
VH: QVQLKQSGPGLVQPSQSLSITCIVSGFSLTNYGVNWVRQSPRKGLEWLGVIWSRGNTDYNAAFISRLIISKDNSKSQVFLKMNRLQADDTAIYYCARKDAVVATDALDYWGQGTSVTVSS
VL: DIVMTQSHKFMSTSLGDRVSITCKASQDVSTAVAWYQQKPGQSPKLLIYSTSYRYTGVPDRFTGSGSGTDFTFTISSVQAEDLAVYYCQQHYSTPYTFGGGTKLEIKR
notes: Murine 67# variable regions + human constant regions
On to B4, for which the dissociation constant Kd was found to be 36.7 nM in experiment [1] and 16 nM in [2]. In addition, the koff in [1] is 0.000969 s⁻¹; in experiment [2] it was 0.000473 s⁻¹. For the same molecule, the kon came out at 26400 M⁻¹ s⁻¹ in experiment [1] and 29500 M⁻¹ s⁻¹ in experiment [2]. Also, the figures for the EC50 in experiment [3] and in experiment [4] were 55.9 nM and 16.5 nM, respectively.

B5: hu67Y116 (antibody, human IgG1, kappa, V domains shown)
VH: EVQLQESGPGLVKPSQTLSLTCTVSGFSLTNYGVNWIRQSPGKGLEWIGVIWSRGNTDYNAAFKSRVTISKDTSKNQVSLKLSSVTAADTAVYYCARKDAIVATDALDYWGQGTTVTVSS
VL: DIQMTQSPSSLSASVGDRVTITCKASQDVQTAVAWYQQKPGKAPKLLIYSTHYRYTGVPSRFSGSGSGTDFTFTISSLQPEDIATYYCLQSYTLPFSFGGGTKVEIKR
As for B5, the equilibrium dissociation constant (Kd) in experiment [1] came out at 39.4 nM; in experiment [2], 27.1 nM. Moreover, the koff in experiment [1] came to 0.00263 s⁻¹; in [2] it was 0.000947 s⁻¹. For the same molecule, the values for the kon in [1] and in [2] were 66700 M⁻¹ s⁻¹ and 35000 M⁻¹ s⁻¹, respectively. Moreover, the half-maximal effective concentration (EC50) in [5] came out at 53.4 nM; in experiment [3] it was 5.42 nM; in [4], 4.91 nM; in experiment [8], 0.103 µg/mL; in [9] it was 0.0691 µg/mL; in experiment [10], 1.66 nM. In addition, the “Maximum (OD450 nm)” value in [5] is 0.292 OD450 nm. In experiment [6], the “EC50 (nM), IL8 assay” value came to 1.57 nM. Moreover, the binding result with rat TF ECD-His and with mouse TF ECD-His was “no binding” each time. Moreover, the “Inhibition rate (%)” value in experiment [7] stood at 4%. For the same molecule, the Emax in experiment [8] was determined as 0.89; in [9] it was 1.17.

B6: hu67-4 (antibody, human IgG1, kappa, V domains shown)
VH: B5 VH with S40P, G42R, K64I, T73N, N76S, I101V
VL: DIVMTQSPKSLAVSLGERATINCKASQDVSTAVAWYQQKPGQPPKLLIYSTSYRYTGVPDRFSGSGSGTDFTLTISSLQAEDVAVYYCQQHYSTPYTFGGGTKVEIKR
As for B6, in [1], binding was put at a Kd of 18.9 nM, the koff was 0.000766 s⁻¹ and the kon was 40500 M⁻¹ s⁻¹. In experiment [2], binding was characterised by a dissociation constant (Kd) of 15.5 nM, the koff was 0.000523 s⁻¹ and the association rate constant (kon) was 33700 M⁻¹ s⁻¹. Moreover, it took 90.5 nM to reach a half-maximal effect in experiment [3] (EC50). The molecule also displayed a 50% effective concentration (EC50) in experiment [4] of 18 nM.

B7: hu310-2 (antibody, human IgG1, kappa, V domains shown)
VH: EVQLVQSGAEVKKPGASVKVSCKASGYSFTGYYMNWVRQAPGQGLEWMGEINPSTGGSTYNQKFKARVTMTVDQSTSTVYMELSSLRSEDTAVYYCARRELGGPFGYWGQGTTVTVSS
VL: SIVMTQSPDSLAVSLGERATINCKASQSVSNGIAWYQQKPGQSPKLLIYFASNRYTGVPDRFSGSGYGTDFTLTISSLQAEDVAVYYCQQDYSSPWTFGGGTKVEIKR
Turning to B7, the dissociation constant Kd was 18.5 nM in [1] and 19.2 nM in experiment [2]. Besides, the off-rate constant (koff) in experiment [1] amounted to 0.00699 s⁻¹; in experiment [2] it was 0.00637 s⁻¹. The on-rate (kon) in experiment [1] stood at 378000 M⁻¹ s⁻¹; in experiment [2], 332000 M⁻¹ s⁻¹. The EC50 in experiment [5] worked out at 2.13 nM; in experiment [3] it was 0.67 nM; in [4], 1.32 nM; in experiment [8], 0.0529 µg/mL; in experiment [9] it was 0.041 µg/mL; in experiment [10], 0.34 nM. In addition, the “Maximum (OD450 nm)” value in experiment [5] is 0.428 OD450 nm. In experiment [6], the “EC50 (nM), IL8 assay” value turned out to be 0.407 nM. Further, the binding result with rat TF ECD-His and with mouse TF ECD-His was “no binding” in each case. Besides, the “Inhibition rate (%)” value in experiment [7] was -2.8%. In addition, the Emax in experiment [8] and in experiment [9] was 0.92 throughout.

B8: hu67-14 (antibody, human IgG1, kappa, V domains shown)
VH: EVTLKQSGPVLVKPTQTLTLTCTVSGFSLTNYGVNWIRQPPRKGLEWLGVIWSRGNTDYNAAFISRLTISKDNSKSQVVLKMTNMDPVDTATYYCARKDAVVATDALDYWGQGTTVTVSS
VL: DIQMTQSHKFLSASVGDRVTITCKASQDVSTAVAWYQQKPGKSPKLLIYSTSYRYTGVPSRFSGSGSGTDFTFTISSLQPEDIATYYCQQHYSTPYTFGGGTKVEIKR
Take B8: in experiment [1], the Kd amounted to 20.1 nM, the off-rate (koff) was 0.000624 s⁻¹ and the kon stood at 31000 M⁻¹ s⁻¹. In experiment [2], the Kd was 12.9 nM, the off-rate constant (koff) worked out at 0.000399 s⁻¹ and the on-rate constant (kon) turned out to be 31000 M⁻¹ s⁻¹. In experiment [3], this molecule displayed an EC50 of 107 nM. The molecule further came in with a half-maximal effective concentration (EC50) in [4] of 18.9 nM.

The term Kd denotes the free concentration of one partner at which half of the binding sites on the other are occupied at equilibrium, for simple one-to-one binding. The term koff denotes the first-order rate constant of dissociation. One may read the kon as the rate constant with which the complex forms. As a reminder, the EC50 is the midpoint of the concentration-response curve.
